# B1: Mothers against decapentaplegic homolog 4 (Homo sapiens), Q13485 (parent)
# chain: MDNMSITNTPTSNDACLSIVHSLMCHRQGGESETFAKRAIESLVKKLKEKKDELDSLITAITTNGAHPSKCVTIQRTLDGRLQVAGRKGFPHVIYARLWRWPDLHKNELKHVKYCQYAFDLKCDSVCVNPYHYERVVSPGIDLSGLTLQSNAPSSMMVKDEYVHDFEGQPSLSTEGHSIQTIQHPPSNRASTETYSTPALLAPSESNATSTANFPNIPVASTSQPASILGGSHSEGLLQIASGPQPGQQQNGFTGQPATYHHNSTTTWTGSRTAPYTPNLPHHQNGHLQHHPPMPPHPGHYWPVHNELAFQPPISNHPAPEYWCSIAYFEMDVQVGETFKVPSSCPIVTVDGYVDPSGGDRFCLGQLSNVHRTEAIERARLHIGKGVQLECKGEGDVWVRCLSDHAVFVQSYYLDREAGRAPGDAVHKIYPSAYIKVFDLRQCHRQMQQQAATAQAAAAAQAAAVAGNIPGPGSVGGIAPAISLSAAAGIGVDDLRRLCILRMSFVKGWGPDYPRQSIKETPCWIEIHLHRALQLLDEVLHTMPIADPQPLD
# partner: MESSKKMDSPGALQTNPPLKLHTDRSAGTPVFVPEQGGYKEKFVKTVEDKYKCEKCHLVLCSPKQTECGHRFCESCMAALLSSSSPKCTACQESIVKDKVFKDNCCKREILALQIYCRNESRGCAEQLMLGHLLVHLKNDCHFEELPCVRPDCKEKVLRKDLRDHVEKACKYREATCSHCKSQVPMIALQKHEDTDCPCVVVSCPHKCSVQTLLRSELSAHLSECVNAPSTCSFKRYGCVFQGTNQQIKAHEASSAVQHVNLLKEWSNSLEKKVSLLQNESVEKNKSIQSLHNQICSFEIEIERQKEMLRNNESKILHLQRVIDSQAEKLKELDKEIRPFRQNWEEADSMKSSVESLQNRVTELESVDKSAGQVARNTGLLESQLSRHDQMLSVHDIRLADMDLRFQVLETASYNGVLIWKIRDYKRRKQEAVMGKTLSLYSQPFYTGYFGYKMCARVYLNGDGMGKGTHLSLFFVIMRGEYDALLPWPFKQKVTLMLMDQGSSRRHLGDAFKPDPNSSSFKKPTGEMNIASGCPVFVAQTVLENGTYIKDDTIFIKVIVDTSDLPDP
# B2: Mothers against decapentaplegic homolog 4 (Homo sapiens), Q13485 (parent)
# chain: B1 chain
# partner: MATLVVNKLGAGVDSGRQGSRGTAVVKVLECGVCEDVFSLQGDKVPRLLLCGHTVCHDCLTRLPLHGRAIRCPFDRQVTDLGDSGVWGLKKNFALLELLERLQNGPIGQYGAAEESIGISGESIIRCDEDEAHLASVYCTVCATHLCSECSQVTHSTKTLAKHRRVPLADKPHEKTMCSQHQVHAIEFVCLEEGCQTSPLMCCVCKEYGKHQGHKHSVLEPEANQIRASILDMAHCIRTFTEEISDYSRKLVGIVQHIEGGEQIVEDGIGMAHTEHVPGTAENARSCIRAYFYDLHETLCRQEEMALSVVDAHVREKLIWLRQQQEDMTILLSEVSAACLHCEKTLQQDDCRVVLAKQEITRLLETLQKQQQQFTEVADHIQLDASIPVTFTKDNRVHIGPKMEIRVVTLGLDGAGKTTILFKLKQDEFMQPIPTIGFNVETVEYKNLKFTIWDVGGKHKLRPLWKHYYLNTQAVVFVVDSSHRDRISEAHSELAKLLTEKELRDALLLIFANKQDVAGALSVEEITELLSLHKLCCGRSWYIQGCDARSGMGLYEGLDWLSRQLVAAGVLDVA
# B3: Mothers against decapentaplegic homolog 4 (Homo sapiens), Q13485 (parent)
# chain: B1 chain
# partner: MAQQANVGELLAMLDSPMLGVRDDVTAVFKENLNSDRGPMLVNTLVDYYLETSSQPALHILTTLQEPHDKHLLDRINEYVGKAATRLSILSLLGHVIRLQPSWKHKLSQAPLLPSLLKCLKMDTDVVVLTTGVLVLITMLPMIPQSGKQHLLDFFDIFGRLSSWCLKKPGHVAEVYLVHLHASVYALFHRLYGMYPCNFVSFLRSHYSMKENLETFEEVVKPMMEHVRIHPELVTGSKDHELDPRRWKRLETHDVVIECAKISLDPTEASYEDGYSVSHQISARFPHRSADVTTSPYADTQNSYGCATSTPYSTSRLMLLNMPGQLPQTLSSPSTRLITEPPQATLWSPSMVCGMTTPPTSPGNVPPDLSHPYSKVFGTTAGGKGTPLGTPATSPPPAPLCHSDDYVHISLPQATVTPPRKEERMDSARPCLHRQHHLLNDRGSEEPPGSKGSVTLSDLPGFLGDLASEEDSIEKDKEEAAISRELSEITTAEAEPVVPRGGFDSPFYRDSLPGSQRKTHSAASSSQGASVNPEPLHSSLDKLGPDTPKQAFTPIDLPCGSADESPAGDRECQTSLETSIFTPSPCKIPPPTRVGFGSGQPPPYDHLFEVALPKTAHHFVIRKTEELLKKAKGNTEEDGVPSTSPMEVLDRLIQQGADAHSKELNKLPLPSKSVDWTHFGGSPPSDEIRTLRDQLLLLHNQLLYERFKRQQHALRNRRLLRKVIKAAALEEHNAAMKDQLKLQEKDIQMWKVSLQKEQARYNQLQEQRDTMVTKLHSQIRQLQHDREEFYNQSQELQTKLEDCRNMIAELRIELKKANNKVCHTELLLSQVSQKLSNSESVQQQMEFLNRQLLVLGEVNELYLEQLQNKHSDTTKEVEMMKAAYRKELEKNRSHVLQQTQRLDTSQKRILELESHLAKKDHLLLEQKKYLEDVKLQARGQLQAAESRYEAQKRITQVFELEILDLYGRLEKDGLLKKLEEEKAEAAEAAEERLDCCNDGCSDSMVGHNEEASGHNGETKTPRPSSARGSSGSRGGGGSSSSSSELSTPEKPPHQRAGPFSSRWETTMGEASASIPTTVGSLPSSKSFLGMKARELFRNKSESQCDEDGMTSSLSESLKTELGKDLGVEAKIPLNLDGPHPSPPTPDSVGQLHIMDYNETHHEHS
# B4: Mothers against decapentaplegic homolog 4 (Homo sapiens), Q13485 (parent)
# chain: B1 chain
# partner: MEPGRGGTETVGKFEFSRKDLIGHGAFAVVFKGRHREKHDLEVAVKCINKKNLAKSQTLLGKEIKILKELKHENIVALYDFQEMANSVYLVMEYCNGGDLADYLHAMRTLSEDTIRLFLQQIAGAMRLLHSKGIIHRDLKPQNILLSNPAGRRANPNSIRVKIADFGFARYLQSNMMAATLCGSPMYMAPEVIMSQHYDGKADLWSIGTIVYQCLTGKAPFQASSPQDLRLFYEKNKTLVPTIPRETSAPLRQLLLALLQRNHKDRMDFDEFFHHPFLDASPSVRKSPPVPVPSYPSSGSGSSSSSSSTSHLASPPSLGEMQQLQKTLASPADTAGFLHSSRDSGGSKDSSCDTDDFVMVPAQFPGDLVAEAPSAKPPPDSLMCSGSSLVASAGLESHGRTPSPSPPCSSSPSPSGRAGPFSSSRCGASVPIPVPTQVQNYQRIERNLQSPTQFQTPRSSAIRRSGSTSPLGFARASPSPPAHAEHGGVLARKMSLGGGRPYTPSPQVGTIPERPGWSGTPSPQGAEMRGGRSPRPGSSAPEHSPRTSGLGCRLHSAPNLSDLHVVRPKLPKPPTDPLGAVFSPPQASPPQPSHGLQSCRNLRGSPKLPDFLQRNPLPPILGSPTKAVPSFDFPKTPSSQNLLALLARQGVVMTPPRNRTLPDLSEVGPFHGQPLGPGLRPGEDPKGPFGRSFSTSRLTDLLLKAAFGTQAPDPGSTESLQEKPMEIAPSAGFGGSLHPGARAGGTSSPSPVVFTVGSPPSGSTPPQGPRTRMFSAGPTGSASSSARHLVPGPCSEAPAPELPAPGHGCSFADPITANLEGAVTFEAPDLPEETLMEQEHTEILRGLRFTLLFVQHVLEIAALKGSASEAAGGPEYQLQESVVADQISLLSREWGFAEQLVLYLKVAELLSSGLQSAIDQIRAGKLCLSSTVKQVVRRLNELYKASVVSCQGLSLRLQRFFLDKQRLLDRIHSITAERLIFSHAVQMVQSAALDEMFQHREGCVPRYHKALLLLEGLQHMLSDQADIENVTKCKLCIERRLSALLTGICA
# Variants of: B1
# Conditions: with traf3_human TRAF3, Q13114
row,Variant,effect of a mutation on the interaction
1,R361H,with no effect

# Variants of: B2
# Conditions: with tri23_human TRIM23, P36406
row,Variant,effect of a mutation on the interaction
1,D351H,with no effect

# Variants of: B2
# Conditions: with tri23_human TRIM23, P36406
# Remark: another data set of the same source
row,Variant,effect of a mutation on the interaction
1,G386D,with no effect

# Variants of: B2
# Conditions: with tri23_human TRIM23, P36406
# Remark: another data set of the same source
row,Variant,effect of a mutation on the interaction
1,R361C,with no effect

# Variants of: B2
# Conditions: with tri23_human TRIM23, P36406
# Remark: another data set of the same source
row,Variant,effect of a mutation on the interaction
1,R361H,with no effect

# Variants of: B3
# Conditions: with tsc1_human TSC1, Q92574
row,Variant,effect of a mutation on the interaction
1,D351H,with no effect

# Variants of: B3
# Conditions: with tsc1_human TSC1, Q92574
# Remark: another data set of the same source
row,Variant,effect of a mutation on the interaction
1,G386D,with no effect

# Variants of: B3
# Conditions: with tsc1_human TSC1, Q92574
# Remark: another data set of the same source
row,Variant,effect of a mutation on the interaction
1,R361C,with no effect

# Variants of: B3
# Conditions: with tsc1_human TSC1, Q92574
# Remark: another data set of the same source
row,Variant,effect of a mutation on the interaction
1,R361H,with no effect

# Variants of: B4
# Conditions: with ulk1_human ULK1, O75385
row,Variant,effect of a mutation on the interaction
1,D351H,with no effect

# Variants of: B4
# Conditions: with ulk1_human ULK1, O75385
# Remark: another data set of the same source
row,Variant,effect of a mutation on the interaction
1,G386D,with no effect

# Variants of: B4
# Conditions: with ulk1_human ULK1, O75385
# Remark: another data set of the same source
row,Variant,effect of a mutation on the interaction
1,R361C,with no effect
